# Where two headings read alike, the source gives them in different places.
# Assays:
# [1] = KARI activity (NADH consumption, acetolactate to 2,3-dihydroxy isovalerate); format: biochemical; settings: natural substrate
# Procedure: (§1) (J. Mol. Catal. B-Enzym. 2009, 61, 30-35).
# KARL activity: KARI activity was assayed by following the NADH consumption connected to the conversion of acetolactate to 2,3-dihydroxy isovalerate at 50° C. Assay mixture contained 5 mM acetolactate, 0.3 mM NADH, 10 mM MgCl2 and 50 mM HEPES, pH 7.
# [2] = Enzyme temperature optimum; format: biochemical; settings: Table 2
# [3] = Isobutanol tolerance of enzymes (I50); format: biochemical
# [4] = Enzyme half-life at 50° C.
# [5] = ALS activity (pyruvate consumption); format: biochemical; settings: natural substrate
# Procedure: as §1
# ALS activity: ALS activity was determined by following pyruvate consumption at 50° C. Reaction mixtures contained 25 mM HEPES (pH 7), 0.1 mM thiamine-pyrophosphate, 2.5 mM MgCl2, 15 mM sodium pyruvate. Pyruvate concentration in the samples was determined via lactate dehydrogenase as described elsewhere. (Biochem. J. 2007, 403, 421-430)
# [6] = Table 2, value with literature reference; cited from earlier work
# [7] = KDC activity (decarboxylation of 2-ketoisovalerate); format: biochemical; settings: natural substrate
# Procedure: as §1
# KDC activity: KDC activity was assayed by following the decarboxylation of 2-ketoisovalerate to isobutyraldehyde at 50° C. and 340 nm. Assay mixture contained 50 mM HEPES (pH 7), 0.1 mM thiamine-pyrophosphate, 2.5 mM MgCl2 and 60 mM 2-ketoisovalerate. Decarboxylation rate was calculated using the molar extinction coefficient of 2-ketoisovalerate (s=0.017 L mmol-1 cm-1). (J. Mol. Catal. B-Enzym. 2009, 61, 30-35)
Molecule,"Activity, 50° C. [1]",T-Optimum [2],I50: Isobutanol concentration which causes loss of 50% activity ([3]; 40° C.),"Half-life, 50° C. [4]","Activity, 50° C. [5]",I50: Isobutanol concentration which causes loss of 50% activity ([3]; 50° C.),T-Optimum [6],"Activity, 50° C. [7]",I50: Isobutanol concentration which causes loss of 50% activity ([3]; 45° C.)
"KARI: Ketol-acid reductoisomerase KARI (EC 1.1.1.86), Meiothermus ruber, Seq ID 14 (protein, Ketolacid reductoisomerase (EC 1.1.1.86), Meiothermus ruber Protein sequence including C-terminal His-Tag) MKIYYDQDADIGFIKDKTVAILGFGSQGHAHALNLRDSGIKVVVGLRPGSRNEEKARKAGLEVLPVGEAVRRADVVMILLPDETQGAVYKAEVEPNLKEGAALAFAHGFNIHFGQIKPRRDLDVWMVAPKGPGHLVRSEYEKGSGVPSLVAVYQDASGSAFPTALAYAKANGGTRAGTIATTFKDETETDLFGEQTVLCGGLTQLIAAGFETLVEAGYPPEMAYFECLHEVKLIVDLIYESGFAGMRYSISNTAEYGDYTRGPMVINREETKARMREVLRQIQQGEFAREWMLENVVGQPTLNANRNYWKDHPIEQVGPKLRAMMPFLKSRFTKEEVGSSGRPVLGSSHHHHHH",0.7 U/mg,55 °C,8 (40° C.) % v/v,34 h,,,,,
"ALS: Acetolactate synthase ALS (EC 2.2.1.6), Bacillus subtilis, Seq ID 12 (protein, listed as Bacillus subtilis) MLTKATKEQKSLVKNRGAELVVDCLVEQGVTHVFGIPGAKIDAVFDALQDKGPEIIVARHEQNAAFMAQAVGRLTGKPGVVLVTSGPGASNLATGLLTANTEGDPVVALAGNVIRADRLKRTHQSLDNAALFQPITKYSVEVQDVKNIPEAVTNAFRIASAGQAGAAFVSFPQDVVNEVTNTKNVRAVAAPKLGPAADDAISAAIAKIQTAKLPVVLVGMKGGRPEAIKAVRKLLKKVQLPFVETYQAAGTLSRDLEDQYFGRIGLFRNQPGDLLLEQADVVLTIGYDPIEYDPKFWNINGDRTIIHLDEIIADIDHAYQPDLELIGDIPSTINHIEHDAVKVEFAEREQKILSDLKQYMHEGEQVPADWKSDRAHPLEIVKELRNAVDDHVTVTCDIGSHAIWMSRYFRSYEPLTLMISNGMQTLGVALPWAIGASLVKPGEKVVSVSGDGGFLFSAMELETAVRLKAPIVHIVWNDSTYDMVAFQQLKKYNRTSAVDFGNIDIVKYAESFGATGLRVESPDQLADVLRQGMNAEGPVIIDVPVDYSDNINLASDKLPKEFGELMKTKALL",,,,12 h,30 U/mg,4 (50° C.) % v/v,37^[4] ° C.,,
"KDC: Branched-chain-2-oxo acid decarboxylase KDC (EC 4.1.1.72), Lactococcus lactis, Seq ID 16 (protein, Branched-chain ketoacid decarboxylase (EC 4.1.1.72), Lactococcus lactis Protein sequence including N-terminal His-Tag) MGSSHHHHHHSSGLVPRGSHMASMYTVGDYLLDRLHELGIEEIFGVPGDYNLQFLDQIISREDMKWIGNANELNASYMADGYARTKKAAAFLTTFGVGELSAINGLAGSYAENLPVVEIVGSPTSKVQNDGKFVHHTLADGDFKHFMKMHEPVTAARTLLTAENATYEIDRVLSQLLKERKPVYINLPVDVAAAKAEKPALSLEKESSTTNTTEQVILSKIEESLKNAQKPVVIAGHEVISFGLEKTVTQFVSETKLPITTLNFGKSAVDESLPSFLGIYNGKLSEISLKNFVESADFILMLGVKLTDSSTGAFTHHLDENKMISLNIDEGIIFNKVVEDFDFRAVVSSLSELKGIEYEGQYIDKQYEEFIPSSAPLSQDRLWQAVESLTQSNETIVAEQGTSFFGASTIFLKSNSRFIGQPLWGSIGYTFPAALGSQIADKESRHLLFIGDGSLQLTVQELGLSIREKLNPICFIINNDGYTVEREIHGPTQSYNDIPMWNYSKLPETFGATEDRVVSKIVRTENEFVSVMKEAQADVNRMYWIELVLEKEDAPKLLKKMGKLFAEQNK",,,,>24 h,,,50^[5] ° C.,150 U/mg,4 (45° C.) % v/v

# — patent US20150218594A1, “CELL-FREE AND MINIMIZED METABOLIC REACTION CASCADES FOR THE PRODUCTION OF CHEMICALS” (CLARIANT PRODUKTE (DEUTSCHLAND) GMBH, priority 2012, published 2015)
